B1: Hairpin Ribozyme (parent)
chain: GUCCUCUUUCACGUGCGCGUGAAAGAGAGAAGUGAACCAGAGAAACACACGUUGUGGUAUAUUACCUGGUA

This data set covers variants of B1. The experiment in a line: self-cleavage, relative activity (ratio to wild type); higher = more cleavage; co-transcriptional.
Take U14C U67G: the self-cleavage turned out to be 0.344. To G54A A59G belongs 0.17; to C10U G40C, 0.138. To A39U A43C belongs 0.129. Regarding U20A G21A, the self-cleavage was 0.79.

For the variant G54A G57U, the self-cleavage was 0.27. On to A36G C38A, for which the self-cleavage stood at 0.146. For U5C A23U, the self-cleavage turned out to be 0.461. As for A36C U62G, the self-cleavage was 0.0267. To A59G U67C belongs 0.128; to A47G U63C, 0.248. Take A39G U62G: the self-cleavage stood at 0.074. Consider A11C C37A, for which the self-cleavage was determined as 0.37. Regarding A41C U62A, the self-cleavage came out at 0.325. For the variant U2C G57A, the self-cleavage was determined as 0.175.

With U9C G19U, the self-cleavage was 0.617. Regarding G34A G42A, the self-cleavage came to 0.356.

On to G21U G27C, for which the self-cleavage is 0.172. On to A43U A47G, for which the self-cleavage worked out at 0.121. As for G15C G57A, the self-cleavage amounted to 0.24. For G27A G68A, the self-cleavage amounted to 0.241. To G42A A45G belongs 0.138; to U33A A41G, 0.0913. As for U8G C16A, the self-cleavage worked out at 0.648. On to C12G G40C, for which the self-cleavage was found to be 0.117. Then C4U G13C, with 0.282. Then C46U G69C, with 0.138; and C4A A11C, with 0.353; and C37A C50U, with 0.138. For the variant C6A G21U, the self-cleavage amounted to 0.542. With U33G U52G, the self-cleavage was 0.0362. As for U67C A71U, the self-cleavage was 0.224.

For the variant G29A U52C, the self-cleavage stood at 0.156.

U2G U63G: the self-cleavage amounted to 0.252. Consider G13A A31G, for which the self-cleavage came to 0.515. Take U8C G13A: the self-cleavage was 0.722. As to U7C U55C, the self-cleavage was found to be 0.418. With U7A A45C, the self-cleavage came out at 0.232. Then U9A A36C, with 0.456; and G21A U63G, with 0.118; and G19U A64G, with 0.539. As to G25A G27U, the self-cleavage is 0.177.

With C10A U67C, the self-cleavage came out at 0.188. Then C6U U33A, with 0.148. On to G34A U63G, for which the self-cleavage was 0.157. For G15C, the self-cleavage was found to be 1.03. As to U7C C10G, the self-cleavage is 0.597. As to U53A A71C, the self-cleavage came to 1.41. A35C G51A: the self-cleavage stood at 1.26.

On to U2A U33A, for which the self-cleavage came to 0.077. Then G15U G40C, with 0.0954; and U2A A30G, with 0.442; and U14G U60C, with 1.23. Consider C46A U63A, for which the self-cleavage is 0.12.

For C6A G17C, the self-cleavage was 0.424. Consider A35C U52A, for which the self-cleavage is 1.14. Regarding C12U A59U, the self-cleavage came out at 0.182. A35G U60C: the self-cleavage came out at 0.917. Regarding A44U G68U, the self-cleavage was determined as 0.187. G17U U62G: the self-cleavage was 0.122. In the case of A35U A61U, the self-cleavage was 0.0854. Consider C38A C65U, for which the self-cleavage was found to be 0.204. Turning to G29C C65U, the self-cleavage was determined as 0.135. With C4U A71C, the self-cleavage worked out at 0.622. Then G17C A35U, with 0.44; and U7C G13U, with 0.788; and C10G A41C, with 0.777. For C6A U58A, the self-cleavage came out at 0.457. On to A23G A26G, for which the self-cleavage is 0.648. Turning to G34A C50A, the self-cleavage worked out at 0.312. Take A31C G68A: the self-cleavage was determined as 0.152. To G1C C66A belongs 0.351; to C48A U58C, 0.154; to A24U G51A, 0.751. For the variant A24U G51U, the self-cleavage was 0.78. For the variant A59G A61G, the self-cleavage was determined as 0.082.

Consider A11C G54U, for which the self-cleavage amounted to 0.583.

A31U U60C: the self-cleavage was 0.103.

As for G13A G29U, the self-cleavage was 0.116. To G40U U55C belongs 0.171; to U2C U8C, 0.236. As for G15A C65A, the self-cleavage was 0.863. To U14G A59G belongs 0.121; to G27C A71U, 0.178; to G34A G56C, 0.13.

As to G27C C50G, the self-cleavage amounted to 0.114. Then A41C U60A, with 1.17; and A11G U14C, with 0.952; and U14A C38G, with 0.0908. On to A28G G56A, for which the self-cleavage stood at 0.296.

Turning to A28C C65U, the self-cleavage was determined as 0.249. As to G19A A28G, the self-cleavage came out at 0.934.

On to U20C A43C, for which the self-cleavage amounted to 0.0285. As to C4G C48G, the self-cleavage is 0.0514. For C6G A61G, the self-cleavage is 0.147. Take C3U A44C: the self-cleavage came to 0.0442. For the variant A30U G32A, the self-cleavage was determined as 0.183. Then U62A G69C, with 0.113. Then A22C A64C, with 0.101; and A30U G42U, with 0.119; and C4A G27U, with 0.557. As for U53C A64C, the self-cleavage amounted to 0.278. Regarding G32C A45U, the self-cleavage turned out to be 0.121. To A36U A39C belongs 0.084. Then C12U G32U, with 0.082. Turning to A31U U52C, the self-cleavage came out at 0.116. For the variant U7G G56C, the self-cleavage amounted to 0.0943.

For G17A A28U, the self-cleavage turned out to be 0.808. Take G34U C46A: the self-cleavage worked out at 0.239. Take G56U U60A: the self-cleavage was determined as 0.219. As to A35U A45U, the self-cleavage came out at 0.151.

As for U33G A59U, the self-cleavage stood at 0.

For the variant A28C G40A, the self-cleavage worked out at 0.131. On to U9A A23C, for which the self-cleavage is 0.501.

For U14A A23C, the self-cleavage was determined as 0.789. Take G27C U33C: the self-cleavage turned out to be 0.117. For the variant A30C U70A, the self-cleavage turned out to be 0.159. On to G21U A22C, for which the self-cleavage is 0.763.

As to A28G G29A, the self-cleavage turned out to be 0.13. On to A44C U63A, for which the self-cleavage was 0.128. As for A45C G69A, the self-cleavage was determined as 0.116. On to A35C C46U, for which the self-cleavage was 0.221. Regarding A39G G56A, the self-cleavage is 0.147. As for A28U A43U, the self-cleavage is 0.132. For the variant U8A G19C, the self-cleavage was found to be 0.553. Turning to A43G A44G, the self-cleavage came to 0.0966. Consider U7C U67C, for which the self-cleavage came to 0.215. On to C4U G27A, for which the self-cleavage was determined as 0.722. As to C46U C66G, the self-cleavage worked out at 0.146. Turning to C6U U70C, the self-cleavage is 0.901. Regarding A45G A59C, the self-cleavage was 0.151. Take A31G U60G: the self-cleavage stood at 0.412. To G42U C46A belongs 0.201; to U2G C18U, 0.378. To A41U U58A belongs 1.2; to G69U U70C, 0.304.

Turning to C12G C50G, the self-cleavage turned out to be 0.176.

Take A47G G54A: the self-cleavage was determined as 0.177. Then C4G U9G, with 0.164; and A41G A49G, with 0.504; and C48G G51U, with 0.17. For C12G A49C, the self-cleavage is 0.196.

As to U14G G69A, the self-cleavage came to 0.303. Take U14C C18G: the self-cleavage turned out to be 0.957. With U8A U62C, the self-cleavage came out at 0.183. With C50G G69C, the self-cleavage came to 0.227. On to G69C, for which the self-cleavage was determined as 0.289. A22C A39G: the self-cleavage was 0.362.

In the case of C3A G13U, the self-cleavage worked out at 0.568. With A28C G68A, the self-cleavage stood at 0.182. Turning to G29C G57C, the self-cleavage stood at 0.131.

For the variant G15U C65U, the self-cleavage worked out at 0.33. Consider G25U A47C, for which the self-cleavage was 0.241. Consider A24C G68A, for which the self-cleavage turned out to be 0.233.

As for A11U G13A, the self-cleavage came out at 0.672.

On to G42A U55C, for which the self-cleavage was 0.103. Consider G13A C18U, for which the self-cleavage is 1.1. In the case of U2G G54U, the self-cleavage amounted to 0.128. Regarding U2A, the self-cleavage is 0.259.

As to A35C A41C, the self-cleavage came out at 1.13. For A26G U63A, the self-cleavage was 0.101.

Turning to A31C C65A, the self-cleavage amounted to 0.0267. In the case of G56U U70G, the self-cleavage was found to be 0.0481. To C16G A35G belongs 0.797; to A31C U63C, 0.23; to A35U C48G, 0.215. As for U5A U9A, the self-cleavage was found to be 0.371.

(Values after the RNAGym collection of RNA variant scans (doi:10.7554/elife.80360).)
